Values joined by “and” are separate entries in the source; they are usually repeats but may differ in a detail not shown here. Equal values may be shown once. Read-outs that look alike come from different tables or passages of the source.
Key:
[1] = molecular target: HA of A/Anhui/1/2013 (H7N9) virus (Influenza A virus A/Anhui/1/2013 (H7N9)); test: cell-based or functional assay
[2] = molecular target: HA of A/Shanghai/2/2013 (H7N9) virus (Influenza A virus A/Shanghai/2/2013 …); test: cell-based or functional assay
[3] = molecular target: HA of A/Sydney/5/97 (H3N2) virus (Influenza A virus A/Sydney/5/97 (H3N2)); test: cell-based or functional assay
[4] = molecular target: T1, HA of A/ck/HK/G9/97 (H9N2) virus (Influenza A virus A/ck/HK/G9/97 (H9N2)); test: cell-based or functional assay
[5] = molecular target: HA of A/Beijing/32/92-R-H3N2 PR8 virus (Influenza A virus A/Beijing/32/92 (H3N2)); test: cell-based or functional assay
[6] = molecular target: T2, HA of Anhui/1/05 (H5N1) virus (Influenza A virus A/Anhui/1/05 (H5N1)); test: cell-based or functional assay
[7] = molecular target: HA of A/Perth/16/09 (H3N2) virus (Influenza A virus A/Perth/16/09 (H3N2)); test: cell-based or functional assay
[8] = molecular target: T3, purified recombinant HA protein of H1N1 (A/Solomon Island/03/06) (Influenza A virus A/Solomon …); test: SPR, Biacore T200, HA captured via anti-6x his tag antibody, 25 C
[9] = molecular target: T3, purified recombinant HA protein of H1N1 …
[10] = molecular target: T4, HA of A/Brisbane/10/07 (H3N2) virus (Influenza A virus A/Brisbane/10/07 …); test: cell-based or functional assay
[11] = molecular target: T5, HA of A/Hong Kong/68 (H3N2) virus (Influenza A virus A/Hong Kong/68 (H3N2)); test: cell-based or functional assay
[12] = molecular target: T6, HA of A/Wisconsin/67/05 (H3N2) virus (Influenza A virus A/Wisconsin/67/05 …); test: cell-based or functional assay
[13] = molecular target: T4, HA of A/Brisbane/10/07 (H3N2) virus; test: cell-based or functional assay; remark: listed apart in the source
[14] = molecular target: T7, HA of A/Ann Arbor/6/60 ca (H2N2) virus (Influenza A virus A/Ann Arbor/6/60 ca …); test: cell-based or functional assay
[15] = molecular target: T1, HA of A/ck/HK/G9/97 (H9N2) virus; test: cell-based or functional assay; remark: listed apart in the source
[16] = molecular target: T8, HA of A/Ohio/83 (H1N1) virus (Influenza A virus A/Ohio/83 (H1N1)); test: cell-based or functional assay
[17] = molecular target: T9, HA of A/Texas/05/2009 (H1N1) virus (Influenza A virus A/Texas/05/2009 (H1N1)); test: cell-based or functional assay
[18] = molecular target: HA of A/Green-winged teal/209/TX/2009 (H9N2) virus (Influenza A virus A/Green-winged …); test: cell-based or functional assay
[19] = molecular target: T10, HA of A/Solomon Islands/2006 (H1N1) virus (Influenza A virus A/Solomon …); test: cell-based or functional assay
[20] = molecular target: T2, HA of Anhui/1/05 (H5N1) virus; test: cell-based or functional assay; remark: listed apart in the source
[21] = molecular target: T5, HA of A/Hong Kong/68 (H3N2) virus; test: cell-based or functional assay; remark: listed apart in the source
[22] = molecular target: HA of A/turkeyNirginia/02 (H7N2) virus (Influenza A virus A/turkey/Virginia/02 …); test: cell-based or functional assay
[23] = molecular target: T11, HA of A/New York/18/2009 (H1N1) virus (Influenza A virus A/New York/18/2009 …); test: cell-based or functional assay
[24] = molecular target: T6, HA of A/Wisconsin/67/05 (H3N2) virus; test: cell-based or functional assay; remark: listed apart in the source
[25] = molecular target: T12, HA of A/Ohio/07/2009 (H1N1) virus (Influenza A virus A/Ohio/07/2009 (H1N1)); test: cell-based or functional assay
[26] = molecular target: T8, HA of A/Ohio/83 (H1N1) virus; test: cell-based or functional assay; remark: listed apart in the source
[27] = molecular target: T9, HA of A/Texas/05/2009 (H1N1) virus; test: cell-based or functional assay; remark: listed apart in the source
[28] = molecular target: T10, HA of A/Solomon Islands/2006 (H1N1) …; test: cell-based or functional assay; remark: listed apart in the source
[29] = molecular target: T11, HA of A/New York/18/2009 (H1N1) virus; test: cell-based or functional assay; remark: listed apart in the source
[30] = molecular target: T7, HA of A/Ann Arbor/6/60 ca (H2N2) virus; test: cell-based or functional assay; remark: listed apart in the source
[31] = molecular target: T8, HA of A/Ohio/83 (H1N1) virus; test: cell-based or functional assay; remark: listed apart in the source
[32] = molecular target: T9, HA of A/Texas/05/2009 (H1N1) virus; test: cell-based or functional assay; remark: listed apart in the source
[33] = molecular target: HA of A/PuertoRico/8/34 (H1N1) virus (Influenza A virus A/PuertoRico/8/34 …, UniProt P03452 18-565); test: cell-based or functional assay
[34] = molecular target: T10, HA of A/Solomon Islands/2006 (H1N1) …; test: cell-based or functional assay; remark: listed apart in the source
[35] = molecular target: T12, HA of A/Ohio/07/2009 (H1N1) virus; test: cell-based or functional assay; remark: listed apart in the source

B1: CT149 (antibody, V domains shown)
VH: QVQLVQSGAEVKKPGASVKVSCKTSGYSFSTYGVSWVRQAPGQGPEWVGWISAYTGITDYAQKFQGRVTLTTDATTATAFLDLRSLRPDDTATYFCARDKVQGRVEVGSGGRHDYWGQGTLVIVSS
VL: EVVLTQSPGTLALPPGERATLSCRASHRVGSTYIAWYQQKSGQAPRRLIYGASNRATDIPDRFSGSGSGTDFTLTIRRLEPEDSAVYYCQQFSVSPWTFGQGTRVEIKR
- EC50, microneutralization test (Contract Lab A) [1]: 0.9 µg/mL
- EC50, microneutralization test (Contract Lab A) [2]: 1.17 µg/mL
- EC50, microneutralization test (Contract Lab B) [2]: 7.71 µg/mL
- EC50, microneutralization test [3]: 2.93 µg/mL
- EC50, microneutralization test [4]: 7.39 µg/mL
- EC50, microneutralization test [5]: 1.36 µg/mL
- EC50, microneutralization test [6]: 11 µg/mL
- EC50, microneutralization test [7]: 2.06 µg/mL
- Kd [8]: 368 nM and 323 nM
- koff [8]: 0.0904 s⁻¹ and 0.105 s⁻¹
- kon [8]: 246000 M⁻¹ s⁻¹ and 324000 M⁻¹ s⁻¹
- Kd [9]: 345 nM
- MN test: lowest antibody concentration at which no virus antigen was detected [10]: 1.25 µg/mL
- MN test: lowest antibody concentration at which no virus antigen was detected [11]: 2.5 µg/mL
- MN test: lowest antibody concentration at which no virus antigen was detected [12]: 1.25 µg/mL
- MN test: lowest antibody concentration at which no virus antigen was detected [13]: 1.25 µg/mL
- MN test: lowest antibody concentration at which no virus antigen was detected [14]: > 10 µg/mL
- MN test: lowest antibody concentration at which no virus antigen was detected [15]: 0.312 µg/mL
- MN test: lowest antibody concentration at which no virus antigen was detected [16]: > 10 µg/mL
- MN test: lowest antibody concentration at which no virus antigen was detected [17]: > 10 µg/mL
- MN test: lowest antibody concentration at which no virus antigen was detected [18]: 0.156 µg/mL
- MN test: lowest antibody concentration at which no virus antigen was detected [19]: > 10 µg/mL
- MN test: lowest antibody concentration at which no virus antigen was detected [20]: 0.625 µg/mL
- MN test: lowest antibody concentration at which no virus antigen was detected [21]: 2.5 µg/mL
- MN test: lowest antibody concentration at which no virus antigen was detected [22]: 10 µg/mL
- MN test: lowest antibody concentration at which no virus antigen was detected [23]: > 10 µg/mL
- MN test: lowest antibody concentration at which no virus antigen was detected [24]: 1.25 µg/mL
- MN test: lowest antibody concentration at which no virus antigen was detected [25]: 5 µg/mL

B2: CT104 (antibody, V domains shown)
VH: QVQLVQSGAEVKKPGSSVKVSCKASGGTLNNYAISWVRQAPGQGLEWMGGISPIFGTLNYAERFQGRVTITADVFTNTVYMELSSLRSEDTAVYFCARGCGYNCYYFDGWGQGTLVTVSS
VL: EIVLTQSPGTLSLSPGERATLSCRASQSLSSSSLVWYQQKPGQAPRLLIYGASSRATGIPDRFSGSGSGTDFTLTISRLEPEDFAVYYCQQYGNSPYTFGQGTQVEIKR
- MN test: lowest antibody concentration at which no virus antigen was detected [26]: 0.313 µg/mL
- MN test: lowest antibody concentration at which no virus antigen was detected [27]: 0.313 µg/mL
- MN test: lowest antibody concentration at which no virus antigen was detected [28]: 0.625 µg/mL
- MN test: lowest antibody concentration at which no virus antigen was detected [29]: 0.625 µg/mL

B3: CT123 (antibody, V domains shown)
VH: QVQLVESGGGVVQPGRSLRLSCAASGFTFSRFGIHWVRQAPGKGLEWMAVIWYDGSNKFYADSVKGRFTISRDNSKNTVYLQMNSLRAEDTAVYYCAKDSRGYCSSIICFEGGLDNWGQGTLVTVSS
VL: ETVLTQSPGTLSLSPGERATLSCRASQSVSISYLAWYQRKPGQAPRLLIYGASRRATGIPDRFSGSGSGTDFTLTISRLEPEDFAVYYCQQYGSSPYTFGQGTKLEIKR
- MN test: lowest antibody concentration at which no virus antigen was detected [26]: 0.313 µg/mL
- MN test: lowest antibody concentration at which no virus antigen was detected [27]: 0.313 µg/mL
- MN test: lowest antibody concentration at which no virus antigen was detected [28]: 1.25 µg/mL
- MN test: lowest antibody concentration at which no virus antigen was detected [29]: 0.625 µg/mL

B4: CT120 (antibody, V domains shown)
VH: QVQLVQSGAEVKMPGSSVKVSCKTSGVFFSSHAISWVRQAPGQGLEWMGGISPMFGTTHYAQKFQGRVTITADQSTTTAYMELTSLTSEDTAVYYCARDGAGSYYPLNWFDPWGQGTLVTVSS
VL: EIVLTQSPATLSLSPGERATLSCRASENIWNNLAWYQQKPGQAPRLLISGASTGATGVPSRFRGSGSRTEFTLTISSLQSEDFAIYFCQQYNSWPRTFGPGTKVEIKR
- EC50, microneutralization test [30]: 6.53 µg/mL
- EC50, microneutralization test [4]: 3.12 µg/mL
- EC50, microneutralization test [31]: 0.26 µg/mL
- EC50, microneutralization test [32]: 1.19 µg/mL
- EC50, microneutralization test [33]: 0.33 µg/mL
- EC50, microneutralization test [34]: 0.25 µg/mL
- EC50, microneutralization test [6]: 6.92 µg/mL
- EC50, microneutralization test [35]: 0.14 µg/mL
- Kd [8]: 2.79 nM and 2.85 nM
- koff [8]: 0.000684 s⁻¹ and 0.000703 s⁻¹
- kon [8]: 245000 M⁻¹ s⁻¹ and 246000 M⁻¹ s⁻¹
- Kd [9]: 2.82 nM
- MN test: lowest antibody concentration at which no virus antigen was detected [26]: 0.156 µg/mL
- MN test: lowest antibody concentration at which no virus antigen was detected [27]: 0.313 µg/mL
- MN test: lowest antibody concentration at which no virus antigen was detected [28]: 0.625 µg/mL
- MN test: lowest antibody concentration at which no virus antigen was detected [29]: 0.313 µg/mL
- MN test: lowest antibody concentration at which no virus antigen was detected [13]: > 20 µg/mL
- MN test: lowest antibody concentration at which no virus antigen was detected [14]: 0.312 µg/mL
- MN test: lowest antibody concentration at which no virus antigen was detected [15]: 0.078 µg/mL
- MN test: lowest antibody concentration at which no virus antigen was detected [16]: 0.156 µg/mL
- MN test: lowest antibody concentration at which no virus antigen was detected [17]: 0.156 µg/mL
- MN test: lowest antibody concentration at which no virus antigen was detected [18]: 0.625 µg/mL
- MN test: lowest antibody concentration at which no virus antigen was detected [19]: 0.625 µg/mL
- MN test: lowest antibody concentration at which no virus antigen was detected [20]: 0.625 µg/mL
- MN test: lowest antibody concentration at which no virus antigen was detected [22]: > 20 µg/mL
- MN test: lowest antibody concentration at which no virus antigen was detected [23]: 0.313 µg/mL
- MN test: lowest antibody concentration at which no virus antigen was detected [24]: > 10 µg/mL
- MN test: lowest antibody concentration at which no virus antigen was detected [25]: 0.039 µg/mL
